We go through 9 molecules from patent publication US20120135923A1 (IPSEN PHARMA S A S, published 2012).

Bridge positions count the residues as written; N and C are the ends. Square brackets hold non-standard residues; d marks the D form. 2Nal = N[C@@H](Cc1ccc2ccccc2c1)C(=O)O; Cha = N[C@@H](CC1CCCCC1)C(=O)O; Pen = CC(C)(S)[C@H](N)C(=O)O; Nle = CCCC[C@H](N)C(=O)O; Ahx = NCCCCCC(=O)O; Ava = NCCCCC(=O)O; GABA = NCCCC(=O)O

A word on the Ki: it is the equilibrium dissociation constant of an inhibitor or competing ligand from its target. A lower Ki goes with a stronger hold on the target.

Sequences and labels used below:
B1: Ac-c(Cys-D-Ala-His-D-Phe-Arg-2-Nal-Ala-Cys)-NH2 (peptide)
peptide: Ac-C[dA]H[dF]R[2Nal]AC-NH2
modifications: disulfide 1-8
SMILES: CC(=O)N[C@H]1CSSC[C@@H](C(N)=O)NC(=O)[C@H](C)NC(=O)[C@H](Cc2ccc3ccccc3c2)NC(=O)[C@H](CCCNC(=N)N)NC(=O)[C@@H](Cc2ccccc2)NC(=O)[C@H](Cc2c[nH]cn2)NC(=O)[C@@H](C)NC1=O
B2: Ac-Arg-c(Cys-His-D-Phe-Arg-Trp-Gaba-Pen)-NH2 (peptide)
peptide: Ac-RCH[dF]RW[GABA][Pen]-NH2
modifications: disulfide 2-8
SMILES: CC(=O)N[C@@H](CCCNC(=N)N)C(=O)N[C@H]1CSSC(C)(C)[C@@H](C(N)=O)NC(=O)CCCNC(=O)[C@H](Cc2c[nH]c3ccccc23)NC(=O)[C@H](CCCNC(=N)N)NC(=O)[C@@H](Cc2ccccc2)NC(=O)[C@H](Cc2c[nH]cn2)NC1=O
B3: Ac-Nle-c(Cys-His-D-Phe-Arg-Trp-Apn-Cys)-NH2 (peptide)
peptide: Ac-[Nle]CH[dF]RW[Ava]C-NH2
modifications: disulfide 2-8
SMILES: CCCC[C@H](NC(C)=O)C(=O)N[C@H]1CSSC[C@@H](C(N)=O)NC(=O)CCCCNC(=O)[C@H](Cc2c[nH]c3ccccc23)NC(=O)[C@H](CCCNC(=N)N)NC(=O)[C@@H](Cc2ccccc2)NC(=O)[C@H](Cc2c[nH]cn2)NC1=O
B4: Ac-Ile-c(Cys-His-D-Phe-Arg-Trp-Gaba-Cys)-NH2 (peptide)
peptide: Ac-ICH[dF]RW[GABA]C-NH2
modifications: disulfide 2-8
SMILES: CC[C@H](C)[C@H](NC(C)=O)C(=O)N[C@H]1CSSC[C@@H](C(N)=O)NC(=O)CCCNC(=O)[C@H](Cc2c[nH]c3ccccc23)NC(=O)[C@H](CCCNC(=N)N)NC(=O)[C@@H](Cc2ccccc2)NC(=O)[C@H](Cc2c[nH]cn2)NC1=O
B5: Ac-Val-c(Cys-His-D-Phe-Arg-Trp-Gaba-Cys)-NH2 (peptide)
peptide: Ac-VCH[dF]RW[GABA]C-NH2
modifications: disulfide 2-8
SMILES: CC(=O)N[C@H](C(=O)N[C@H]1CSSC[C@@H](C(N)=O)NC(=O)CCCNC(=O)[C@H](Cc2c[nH]c3ccccc23)NC(=O)[C@H](CCCNC(=N)N)NC(=O)[C@@H](Cc2ccccc2)NC(=O)[C@H](Cc2c[nH]cn2)NC1=O)C(C)C
B6: Ac-c(Cys-Glu-His-D-Phe-Arg-Trp-Ala-Cys)-NH2 (peptide)
peptide: Ac-CEH[dF]RWAC-NH2
modifications: disulfide 1-8
SMILES: CC(=O)N[C@H]1CSSC[C@@H](C(N)=O)NC(=O)[C@H](C)NC(=O)[C@H](Cc2c[nH]c3ccccc23)NC(=O)[C@H](CCCNC(=N)N)NC(=O)[C@@H](Cc2ccccc2)NC(=O)[C@H](Cc2c[nH]cn2)NC(=O)[C@H](CCC(=O)O)NC1=O

T4 sequence (P32245 whole entry): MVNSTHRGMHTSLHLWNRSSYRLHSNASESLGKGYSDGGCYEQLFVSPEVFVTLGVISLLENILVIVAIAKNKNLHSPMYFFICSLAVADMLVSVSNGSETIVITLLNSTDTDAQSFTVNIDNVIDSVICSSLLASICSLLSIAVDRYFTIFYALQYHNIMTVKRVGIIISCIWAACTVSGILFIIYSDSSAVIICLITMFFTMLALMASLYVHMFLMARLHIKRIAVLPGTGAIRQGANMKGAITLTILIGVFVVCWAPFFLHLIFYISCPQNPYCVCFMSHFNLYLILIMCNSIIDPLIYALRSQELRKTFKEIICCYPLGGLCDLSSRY
T2 sequence (P33032 whole entry): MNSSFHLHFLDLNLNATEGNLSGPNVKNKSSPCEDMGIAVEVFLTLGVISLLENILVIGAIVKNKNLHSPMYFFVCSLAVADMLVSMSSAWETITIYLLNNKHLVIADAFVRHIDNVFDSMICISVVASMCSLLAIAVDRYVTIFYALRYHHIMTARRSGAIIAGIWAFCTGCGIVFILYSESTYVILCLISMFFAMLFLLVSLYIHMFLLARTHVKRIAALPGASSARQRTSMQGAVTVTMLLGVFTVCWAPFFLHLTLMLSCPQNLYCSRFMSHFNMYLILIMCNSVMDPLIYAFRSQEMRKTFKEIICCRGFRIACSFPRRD

In the first test the target is T1, hMC1-R (human, UniProt Q01726 1-317).
T1 construct: whole, on cells; Assayed as membranes of CHO-K1 cells expressing the receptor; also called hMC-R receptor subtype 1; melanocyte-specific receptor (MC1-R)
T1 sequence (Q01726 whole entry): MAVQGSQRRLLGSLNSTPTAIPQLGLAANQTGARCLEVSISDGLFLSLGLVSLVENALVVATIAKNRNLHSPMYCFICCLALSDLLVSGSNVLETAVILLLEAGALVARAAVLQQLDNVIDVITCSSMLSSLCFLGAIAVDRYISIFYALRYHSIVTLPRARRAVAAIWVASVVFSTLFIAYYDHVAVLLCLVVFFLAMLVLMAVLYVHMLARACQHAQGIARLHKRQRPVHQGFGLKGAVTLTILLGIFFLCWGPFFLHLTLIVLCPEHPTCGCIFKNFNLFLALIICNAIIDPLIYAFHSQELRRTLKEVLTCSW
As to the kind of experiment: ratio Ki hMC1-R / Ki hMC4-R, same assay. The procedure: Cellular membranes used for the in vitro receptor binding assays were obtained from transgenic CHO-K1 cells stably expressing hMC-R receptor subtypes 1, 3, 4 or 5. […] The pellets were resuspended in the same buffer and centrifuged at 50,000 g for 10 minutes at approximately 4° C. The washed pellets containing the cellular membranes were stored at approximately −80° C.
Competitive inhibition of [¹²⁵I](Tyr²)-(Nle⁴-D-Phe⁷)α-MSH ([¹²⁵I]-NDP-α-MSH, Amersham Biosciences®) binding was carried out in polypropylene 96 well plates. Cell membranes (1-10 μg protein/well) prepared as described above were incubated in 50 mM Tris-HCl at pH 7.4 containing 0.2% bovine serum albumin (BSA), 5 mM MgCl₂, 1 mM CaCl₂ and 0.1 mg/mL bacitracin, with increasing concentrations of the test compound and 0.1-0.3 nM […] for approximately 90-120 minutes at approximately 37° C. Bound [¹²⁵I]-NDP-α-MSH ligand was separated from free [¹²⁵I]-NDP-α-MSH by filtration through GF/C glass fiber filter plates (Unifilter®; Packard) presoaked with 0.1% (w/v) polyethylenimine (PEI), using a Packard Filtermate® harvester. Filters were washed three times with 50 mM Tris-HCl at pH 7.4 at a temperature of approximately 0-4° C. and then assayed for radioactivity using a Packard Topcount® scintillation counter. Binding data were analyzed by computer-assisted non-linear regression analysis (XL fit; IDBS).
Ac-[Cha]CH[dF]RW[GABA]C-NH2 (disulfide 2-8) [Ac-Cha-c(Cys-His-D-Phe-Arg-Trp-Gaba-Cys)-NH2]: the “Ki hMC1-R/MC4-R” value turned out to be 0.12.
As to B1, the “Ki hMC1-R/MC4-R” value is 3.24.
On the same count and under the same terms, the result for Ac-[Nle]CH[dF]RW[Ahx]C-NH2 (disulfide 2-8) [Ac-Nle-c(Cys-His-D-Phe-Arg-Trp-Ahx-Cys)-NH2] reads 0.11.
On the same count and under the same terms, the result for B2 reads 0.4; that for B3, 0.11.
B4: the “Ki hMC1-R/MC4-R” value is 0.14.
The same measure, in the same setting: the result for B5 reads 0.13; that for Ac-LCH[dF]RW[GABA]C-NH2 (disulfide 2-8) [Ac-Leu-c(Cys-His-D-Phe-Arg-Trp-Gaba-Cys)-NH2], 0.22.
Still for that read-out and setting: for B6 the value was 2.33.

For another test, the target named is T1, hMC1-R. Kind of test: competition with [125I]-NDP-α-MSH, CHO-K1 membranes.
The molecule Ac-[Cha]CH[dF]RW[GABA]C-NH2 (disulfide 2-8) [Ac-Cha-c(Cys-His-D-Phe-Arg-Trp-Gaba-Cys)-NH2] registered a Ki of 0.107 nM.
B1 returned a Ki of 132 nM.
The same measure, in the same setting: for Ac-[Nle]CH[dF]RW[Ahx]C-NH2 (disulfide 2-8) [Ac-Nle-c(Cys-His-D-Phe-Arg-Trp-Ahx-Cys)-NH2] the value was 0.0132 nM; for B2, 1.81 nM.
Still for that read-out and setting: the result for B3 reads 0.0951 nM.
Molecule B4 displayed a Ki of 0.148 nM.
Consider B5, for which the Ki worked out at 0.256 nM.
For Ac-LCH[dF]RW[GABA]C-NH2 (disulfide 2-8) [Ac-Leu-c(Cys-His-D-Phe-Arg-Trp-Gaba-Cys)-NH2], the Ki is 0.216 nM.
B6 gave a Ki of 111 nM.

A further test has as its target T2, hMC5-R (human, UniProt P33032 1-325).
T2 construct: whole, on cells; Assayed as membranes of CHO-K1 cells expressing the receptor; also called hMC-R receptor subtype 5; melanocortin-5 receptor (MC5-R)
Described as above.
As to Ac-[Cha]CH[dF]RW[GABA]C-NH2 (disulfide 2-8) [Ac-Cha-c(Cys-His-D-Phe-Arg-Trp-Gaba-Cys)-NH2], the Ki was determined as 0.354 nM.
Still for that read-out and setting: for B1 the value was 8810 nM; for Ac-[Nle]CH[dF]RW[Ahx]C-NH2 (disulfide 2-8) [Ac-Nle-c(Cys-His-D-Phe-Arg-Trp-Ahx-Cys)-NH2], 0.359 nM.
B2 displayed a Ki of 502 nM.
Same read-out and setting: for B3 the value was 13.4 nM.
With B4, the affinity corresponds to a Ki of 0.423 nM.
Turning to B5, the Ki came out at 0.864 nM.
The molecule Ac-LCH[dF]RW[GABA]C-NH2 (disulfide 2-8) [Ac-Leu-c(Cys-His-D-Phe-Arg-Trp-Gaba-Cys)-NH2] returned a Ki of 0.486 nM. Against the preceding molecule, the Ki is about 1.8-fold lower.
Still for that read-out and setting: the result for B6 reads 694 nM.

In the next test the target is T3, hMC3-R (human, UniProt P41968 1-323).
T3 construct: whole, on cells; Assayed as membranes of CHO-K1 cells expressing the receptor; also called hMC-R receptor subtype 3; melacortin-3 (MC3-R)
T3 sequence (P41968 whole entry): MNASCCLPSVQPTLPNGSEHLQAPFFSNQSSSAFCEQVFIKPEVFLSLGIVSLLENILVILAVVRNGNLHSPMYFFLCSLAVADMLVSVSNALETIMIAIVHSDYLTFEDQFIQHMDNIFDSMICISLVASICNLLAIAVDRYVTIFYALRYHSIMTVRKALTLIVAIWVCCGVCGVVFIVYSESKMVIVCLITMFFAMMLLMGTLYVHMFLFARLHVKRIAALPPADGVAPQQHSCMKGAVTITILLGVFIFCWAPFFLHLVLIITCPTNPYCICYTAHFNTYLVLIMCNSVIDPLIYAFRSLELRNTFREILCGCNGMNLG
The test is described as above.
Ac-[Cha]CH[dF]RW[GABA]C-NH2 (disulfide 2-8) [Ac-Cha-c(Cys-His-D-Phe-Arg-Trp-Gaba-Cys)-NH2] came in with a Ki of 9.11 nM.
The same measure, in the same setting: for B1 the value was 4560 nM; for Ac-[Nle]CH[dF]RW[Ahx]C-NH2 (disulfide 2-8) [Ac-Nle-c(Cys-His-D-Phe-Arg-Trp-Ahx-Cys)-NH2], 16.1 nM.
The molecule B2 registered a Ki of 20.5 nM.
The same measure, in the same setting: for B3 the value was 9.33 nM; for B4, 13.9 nM.
B5 yielded a Ki of 29.9 nM.
On the same count and under the same terms, for Ac-LCH[dF]RW[GABA]C-NH2 (disulfide 2-8) [Ac-Leu-c(Cys-His-D-Phe-Arg-Trp-Gaba-Cys)-NH2] the value was 17.4 nM; for B6, 1710 nM.

Another test addresses T4, hMC4-R (human, UniProt P32245 1-332).
T4 construct: whole, on cells; Assayed as membranes of CHO-K1 cells expressing the receptor; also called hMC-R receptor subtype 4; melanocortin-4 (MC4-R)
The test is described as above.
On to Ac-[Cha]CH[dF]RW[GABA]C-NH2 (disulfide 2-8) [Ac-Cha-c(Cys-His-D-Phe-Arg-Trp-Gaba-Cys)-NH2], for which the Ki came to 0.884 nM. That is a sub-nanomolar value.
The same measure, in the same setting: for B1 the value was 40.7 nM; for Ac-[Nle]CH[dF]RW[Ahx]C-NH2 (disulfide 2-8) [Ac-Nle-c(Cys-His-D-Phe-Arg-Trp-Ahx-Cys)-NH2], 1.23 nM; for B2, 4.57 nM.
On the same count and under the same terms, for B3 the value was 0.894 nM.
As for B4, the Ki was 1.06 nM.
Take B5: the Ki came to 1.98 nM.
The same measure, in the same setting: the result for Ac-LCH[dF]RW[GABA]C-NH2 (disulfide 2-8) [Ac-Leu-c(Cys-His-D-Phe-Arg-Trp-Gaba-Cys)-NH2] reads 0.995 nM; that for B6, 47.7 nM.
